Experimental findings from the supplement of paper PMC5998384 are described below.

Series [1] has as its system HeLa Kyoto. Briefly: melting temperature (median over replicates), in situ; higher = more thermally stable.
Series [2] concerns HeLa Kyoto. In words: solubility in G1/S (NP-40 vs SDS abundance) (log2 ratio); higher = more soluble. To be noted: cell cycle stage: G1/S.
For series [3], the system named is HeLa Kyoto. In words: solubility change mitosis vs G1/S (difference of NP-40 vs SDS log2 ratios) (log2 ratio difference); higher = more soluble in mitosis.
Series [4] has as its system HeLa Kyoto. In words: thermal stability score vs G1/S (z-score of summed log2 fold changes over temperatures); higher = more thermally stable than in G1/S.
Where [5] appears, read: cell cycle stage: early G1 (4.5 h after nocodazole release).
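Throughout, for melting temperature (median over replicates), in situ: HeLa Kyoto cells synchronized by double thymidine or nocodazole block, proteins quantified by TMT10plex mass spectrometry, three independent biological replicates.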
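Throughout, for solubility change mitosis vs G1/S (difference of NP-40 vs SDS log2 ratios): synchronized HeLa Kyoto cells (double thymidine block for G1/S, nocodazole release for mitosis), protein amounts in NP-40 versus SDS lysates quantified by mass spectrometry, three biological replicates.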
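Throughout, for solubility in G1/S (NP-40 vs SDS abundance): HeLa Kyoto cells arrested at G1/S by double thymidine block, proteins quantified by TMT10plex mass spectrometry in mild NP-40 versus SDS extracts, three biological replicates.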
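Throughout, for thermal stability score vs G1/S (z-score of summed log2 fold changes over temperatures): synchronized HeLa Kyoto cells, proteins quantified by TMT10plex mass spectrometry, three biological replicates, mitosis taken 0.5 h after nocodazole release, G1/S directly after double thymidine block.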

Consider “MFEEKASSPSGKMGGEEKPIGAGEEKQKEGGKKKNKEGSGDGGRAELNPWPEYIYTRLEMYNILKAEHDSILAEKAEKDSKPIKVTLPDGKQVDAESWKTTPYQIACGISQGLADNTVIAKVNNVVWDLDRPLEEDCTLELLKFEDEEAQAVYWHSSAHIMGEAMERVYGGCLCYGPPIENGFYYDMYLEEGGVSSNDFSSLEALCKKIIKEKQAFERLEVKKETLLAMFKYNKFKCRILNEKVNTPTTTVYRCGPLIDLCRGPHVRHTGKIKALKIHKNSSTYWEGKADMETLQRIYGISFPDPKMLKEWEKFQEEAKNRDHRKIGRDQELYFFHELSPGSCFFLPKGAYIYNALIEFIRSEYRKRGFQEVVTPNIFNSRLWMTSGHWQHYSENMFSFEVEKELFALKPMNCPGHCLMFDHRPRSWRELPLRLADFGVLHRNELSGALTGLTRVRRFQQDDAHIFCAMEQIEDEIKGCLDFLRTVYSVFGFSFKLNLSTRPEKFLGDIEVWDQAEKQLENSLNEFGEKWELNSGDGAFYGPKIDIQIKDAIGRYHQCATIQLDFQLPIRFNLTYVSHDGDDKKRPVIVHRAILGSVERMIAILTENYGGKWPFWLSPRQVMVVPVGPTCDEYAQKVRQQFHDAKFMADIDLDPGCTLNKKIRNAQLAQYNFILVVGEKEKISGTVNIRTRDNKVHGERTISETIERLQQLKEFRSKQAEEEF [TARS]”, for which the melting temperature in series [1] (cell cycle stage: G1/S) turned out to be 51.9 °C; in series [1] (cell cycle stage: mitosis) it was 51.6 °C. Further, the “solubility in G1/S (log2)” value in series [2] is -0.0551. The “solubility change mitosis (log2)” value in series [3] is -0.144. Moreover, the figures for the thermal stability score in series [4] (setting [5]) and in series [4] (cell cycle stage: mitosis) were 0.00611 and -0.985, respectively.

As to “MSLLLYYALPALGSYAMLSIFFLRRPHLLHTPRAPTFRIRLGAHRGGSGELLENTMEAMENSMAQRSDLLELDCQLTRDRVVVVSHDENLCRQSGLNRDVGSLDFEDLPLYKEKLEVYFSPGHFAHGSDRRMVRLEDLFQRFPRTPMSVEIKGKNEELIREIAGLVRRYDRNEITIWASEKSSVMKKCKAANPEMPLSFTISRGFWVLLSYYLGLLPFIPIPEKFFFCFLPNIINRTYFPFSCSCLNQLLAVVSKWLIMRKSLIRHLEERGVQVVFWCLNEESDFEAAFSVGATGVITDYPTALRHYLDNHGPAARTS [GDPD3]”, the melting temperature in series [1] (cell cycle stage: G1/S) amounted to 56.4 °C; in series [1] (cell cycle stage: mitosis) it was 55.1 °C. Further, in series [2], the “solubility in G1/S (log2)” value is -0.262. Moreover, the “solubility change mitosis (log2)” value in series [3] is -0.0964. Moreover, the thermal stability score in series [4] (setting [5]) is -0.274; in series [4] (cell cycle stage: mitosis) it was 0.35.

On to “MSIFPKISLRPEVENYLKEGFMNKEIVTALGKQEAERKFETLLKHLSHPPSFTTVRVNTHLASVQHVKNLLLDELQKQFNGLSVPILQHPDLQDVLLIPVIGPRKNIKKQQCEAIVGAQCGNAVLRGAHVYAPGIVSASQFMKAGDVISVYSDIKGKCKKGAKEFDGTKVFLGNGISELSRKEIFSGLPELKGMGIRMTEPVYLSPSFDSVLPRYLFLQNLPSALVSHVLNPQPGEKILDLCAAPGGKTTHIAALMHDQGEVIALDKIFNKVEKIKQNALLLGLNSIRAFCFDGTKAVKLDMVEDTEGEPPFLPESFDRILLDAPCSGMGQRPNMACTWSVKEVASYQPLQRKLFTAAVQLLKPEGVLVYSTCTITLAENEEQVAWALTKFPCLQLQPQEPQIGGEGMRGAGLSCEQLKQLQRFDPSAVPLPDTDMDSLREARREDMLRLANKDSIGFFIAKFVKCKST [NSUN6]”, for which the melting temperature in series [1] (cell cycle stage: G1/S) stood at 51.8 °C; in series [1] (cell cycle stage: mitosis) it was 51.4 °C. Further, the “solubility in G1/S (log2)” value in series [2] was 0.29. Further, the “solubility change mitosis (log2)” value in series [3] was -0.179. Besides, the thermal stability score in series [4] (setting [5]) is -0.273; in series [4] (cell cycle stage: mitosis), 0.177.

On to “MVISESMDILFRIRGGLDLAFQLATPNEIFLKKALKHVLSDLSTKLSSNALVFRICHSSVYIWPSSDINTIPGELTDASACKNILRFIQFEPEEDIKRKFMRKKDKKLSDMHQIVNIDLMLEMSTSLAAVTPIIERESGGHHYVNMTLPVDAVISVAPEETWGKVRKLLVDAIHNQLTDMEKCILKYMKGTSIVVPEPLHFLLPGKKNLVTISYPSGIPDGQLQAYRKELHDLFNLPHDRPYFKRSNAYHFPDEPYKDGYIRNPHTYLNPPNMETGMIYVVQGIYGYHHYMQDRIDDNGWGCAYRSLQTICSWFKHQGYTERSIPTHREIQQALVDAGDKPATFVGSRQWIGSIEVQLVLNQLIGITSKILFVSQGSEIASQGRELANHFQSEGTPVMIGGGVLAHTILGVAWNEITGQIKFLILDPHYTGAEDLQVILEKGWCGWKGPDFWNKDAYYNLCLPQRPNMI [UFSP2]”, for which the melting temperature in series [1] (cell cycle stage: G1/S) stood at 51.2 °C; in series [1] (cell cycle stage: mitosis), 51 °C. In addition, the “solubility in G1/S (log2)” value in series [2] was -0.0543. Besides, in series [3], the “solubility change mitosis (log2)” value was -0.212. The thermal stability score is -0.738 in series [4] (setting [5]) and -0.716 in series [4] (cell cycle stage: mitosis).

Consider CHD4, for which the melting temperature in series [1] (cell cycle stage: G1/S) was 46.9 °C; in series [1] (cell cycle stage: mitosis), 49.1 °C. For the same substance, the “solubility in G1/S (log2)” value in series [2] was -0.471. For the same substance, the “solubility change mitosis (log2)” value in series [3] was determined as 0.0937. For the same substance, the thermal stability score stood at 3.38 in series [4] (setting [5]) and 8.56 in series [4] (cell cycle stage: mitosis).
